Measured values: patent publication US20070128192A1 (AstraZeneca / MedImmune, published 2007)
Where a chain is given by its changes, count along the chain named. Read-outs that look alike come from different tables or passages of the source.

Tests used:
human IL-13 [1] = target: T1, human IL-13 (human, UniProt P35225 15-146); test: cell-based or functional assay
murine IL-13 [2] = target: T2, murine IL-13 (mouse, UniProt P20109 21-131, limits assumed); test: cell-based or functional assay
T2 sequence (looked up): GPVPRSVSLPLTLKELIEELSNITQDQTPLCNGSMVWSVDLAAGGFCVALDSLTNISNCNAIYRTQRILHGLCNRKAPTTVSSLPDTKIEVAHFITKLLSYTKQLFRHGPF

murine IL-13 [3] = target: T2, murine IL-13; test: BIAcore, IgG4 coupled to CM5 chip, murine IL-13 passed over
human IL-13 [4] = target: T1, human IL-13; test: cell-based or functional assay; remark: listed apart in the source
[5] = target: T3, wild type human IL-13, baculovirus expressed, carboxyl terminus affinity tag (human, UniProt P35225 33-146); test: cell-based or functional assay
[6] = target: T4, non-human primate IL-13 (rhesus and cynomolgus, identical), baculovirus expressed, carboxyl terminus affinity … (rhesus and cynomolgus monkey, UniProt Q5I6E4 21-132 (Macaca thibetana entry)); test: cell-based or functional assay
T4 chain: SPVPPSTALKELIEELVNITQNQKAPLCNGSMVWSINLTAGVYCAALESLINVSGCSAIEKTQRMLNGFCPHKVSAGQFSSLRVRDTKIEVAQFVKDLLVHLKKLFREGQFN

[7] = target: human IL-13 variant (Q130R), baculovirus expressed, carboxyl terminus affinity tag (human, UniProt P35225 33-146); test: cell-based or functional assay
[8] = target: T4, non-human primate IL-13 (rhesus and …); test: cell-based or functional assay
[9] = target: native (naturally occurring) human IL-13 released from HDLM-2 cells (human, UniProt P35225 15-146); test: cell-based or functional assay
[10] = target: T3, wild type human IL-13, baculovirus …; test: cell-based or functional assay; remark: listed apart in the source
human IL-13 [11] = target: T1, human IL-13; test: BIAcore, IgG coupled to CM5 chip, IL-13 50 nM to 0.78 nM passed over

T3 sequence (P35225 other isoform, or with tags, fused parts or gaps): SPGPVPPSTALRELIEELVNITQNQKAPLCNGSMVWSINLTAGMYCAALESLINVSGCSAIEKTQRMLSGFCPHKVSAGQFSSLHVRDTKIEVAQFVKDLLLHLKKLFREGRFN
native (naturally occurring) human IL-13 released from HDLM-2 cells, sequence (P35225 other isoform, or with tags, fused parts or gaps): as above
T1 sequence (P35225 other isoform, or with tags, fused parts or gaps): as above
human IL-13 variant (Q130R), baculovirus expressed, carboxyl terminus affinity tag, sequence (P35225 33-146 limits assumed, stated change not applied, form in doubt): as the sequence (P35225 other isoform, or with tags, fused parts or gaps) above, with R112Q counted along it

B1: BAK615E3 scFv (scFv, V domains shown)
VH: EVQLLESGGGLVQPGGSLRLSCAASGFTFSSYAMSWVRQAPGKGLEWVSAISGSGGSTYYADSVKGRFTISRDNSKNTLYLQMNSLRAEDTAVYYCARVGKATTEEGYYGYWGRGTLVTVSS
VL: NFMLTQPHSVSESPGKTVTISCTRSSGSIASNYVQWYQQRPGSAPTTVIYDDNQRPSGVPDRFSGSIDSSSNSASLTISGLKTEDEADYYCQSYDSNNDVFGGGTKVTVL
- IC50, TF-1 cell proliferation assay (human IL-13 [1]): 3 nM

B2: BAK209B11 scFv (scFv, V domains shown)
VH: VQLQESGGGGLVQPGGSLRLSCAASGFTFSSYGMSWVRQAPGKGLEWVSSISASGDSTFYADSVKGRFTISRDNNKNMVFLQVNSLRADDTAVYFCAKDWSQWLVGDAFDVWGRGTTVTVSS
VL: DIQLTQSPSTLSASVGDRVTITCRASQSVSLWVAWYQQRPGKAPKLLIYDGSTLQSGVPARFSGSGSGTEFTLTISSLQPDDFATYYCQQYKTFSTFGQGTKVEIK
- IC50, TF-1 cell proliferation assay (murine IL-13 [2]): 185 nM

B3: BAK209B11 human IgG4 (antibody, V domains shown)
VH: B2 VH
VL: DIQLTQSPSTLSASVGDRVTITCRASQSVSLWVAWYQQRPGKAPKLLIYDGSTLQSGVPARFSGSGSGTEFTLTISSLQPDDFATYYCQQYKTFSTFGQGTKVEIKR
- IC50, B9 cell proliferation assay (murine IL-13 [2]): 0.776 nM
- Kd (murine IL-13 [3]): 5.1 nM
- koff (murine IL-13 [3]): 0.0198 s⁻¹
- kon (murine IL-13 [3]): 3.9e+06 M⁻¹ s⁻¹

B4: BAK278D6 scFv (scFv, V domains shown)
VH: EVQLVQSGAEVKKPGASVKVSCKASGYTFRNYGLSWVRQAPGQGLEWMGWISANNGDTNYGQEFQGRITMTTETSTNTAHMELRSLRSDDTAVYYCVRDSSSNWARWFFDLWGKGTMVTVSS
VL: SYVLTQPPSVSVAPGQTARIPCGGNNIGSKLVHWYQQKPGQAPVLVVYDDGDRPSGIPERFSGSNSGNTATLTISRIDAGDEADYYCQVWDTGSDPVVFGGGTKLTVL
- IC50, TF-1 cell proliferation assay (human IL-13 [4]): 44 nM
- IC50 (read off the curve); TF-1 cell proliferation, 25 ng/ml human IL-13 [5]: ~70 nM
- IC50 (read off the curve); TF-1 cell proliferation, 50 ng/ml non-human primate IL-13 [6]: ~90 nM

B5: BAK502G9 IgG4 (antibody, V domains shown)
VH: B4 VH with E1Q, R30T, I68V, E73D, N77S, H80Y, V97A, N103S, K114R, M117L
VL: B4 VL with Q16K, P21T, N26I, V47I, I77V, D78E
- IC50, TF-1 cell proliferation assay [7]: 1.9 nM
- IC50, TF-1 cell proliferation assay [8]: 2 nM
- IC50, HDLM-2 cell proliferation assay [9]: 4.6 nM

B6: BAK1167F2 IgG4 (antibody, V domains shown)
VH: QVQLVQSGAEVKKPGASVKVSCKASGYTFEQTGVSWVRQAPGQGLEWMGWISANNGDTNYGQEFQGRVTMTTDTSTSTAYMELRSLRSDDTAVYYCARDSSSSWARWFFDLWGRGTLVTVSS
VL: B4 VL with Q16K, P21T, N26I, V47I, I77V, D78E
- IC50, TF-1 cell proliferation assay [10]: 1 nM
- IC50, TF-1 cell proliferation assay [7]: 1.1 nM
- IC50, HDLM-2 cell proliferation assay [9]: 1.1 nM

B7: BAK1183H4 IgG4 (antibody, V domains shown)
VH: B6 VH with E30T, Q31N, T32Y, V34L, S52N, A53Y, N54D, N55G, D57N, N59Q
VL: B4 VL with Q16K, P21T, N26I, V47I, I77V, D78E
- IC50, TF-1 cell proliferation assay [10]: 0.9 nM
- IC50, TF-1 cell proliferation assay [7]: 1 nM
- IC50, HDLM-2 cell proliferation assay [9]: 3.5 nM

B8: BAK278D6 IgG (antibody, V domains shown)
VH: B4 VH
VL: B4 VL
- Kd (human IL-13 [11]): 13.5 nM
- koff (human IL-13 [11]): 0.00741 s⁻¹
- kon (human IL-13 [11]): 549000 M⁻¹ s⁻¹
